Data set [1] concerns the target 2,5-DHP dioxygenase Hpo from Pseudomonas putida S16 (non-His6-tagged) (Pseudomonas putida S16). Description: SEC + native gel or EMSA. (Mobility shift assays separate free from complexed probe on a gel.)
Substrate in the data set “purified protein”: O=CNC(=O)/C=C/C(=O)O
As to the kind of experiment: purified protein. To be noted: 20 mM sodium phosphate pH 6.7, 25 °C.

“2,5-DHP dioxygenase Hpo from Pseudomonas putida S16 (non-His6-tagged) (enzyme)”: the stoichiometry N in data set [1] came out at 3.

B1: Nfo (Pseudomonas putida S16) (protein)
chain: MKGYNVYANGIRQHIIHFPGTGSPLLLIPGITSPAVTWGFVAERLAKYFDVHVVDVRGRGLSESGDLDYSLDAMADDLVALAQRMEGVVVLGHSMGARIAIRAARKDSQVFSRLILVDPPVSGPGRRPYPAKWSWYAESIRLAQRGCTAMEMRSYCPTWTDEQIELRAEWLHTCQYTAVKTAFDGFHTDDIHTDLAQLTLPIQLVVAGGAEVIQPDDIAEIISLAPQTTTYVVEEAGHMIPWDNLEGFITAVSNR
On to B1, for which, in “purified protein”, the Km was 5.83 ± 0.46 mM and the kcat was 2.4 ± 0.1 s⁻¹.

By stoichiometry N is commonly meant a count of units in the complex or per binding partner. As a reminder, the Km is the concentration of substrate that gives half-maximal velocity. The kcat is the number of substrate molecules converted per active site and unit of time at saturation.

The record behind these values is publication PMC3831237.
